Reference: patent US20220195012A1 (NATIONAL CENTRE FOR CELL SCIENCE, published 2022)
Substitutions are numbered along the chain they refer to. Numbers in names are those of the source. Where “and” joins values, the source holds several entries; their conditions need not be identical. Equal values may be shown once.

B1: Human DAF (D1-D4), decay-accelerating factor (other)
chain: CGLPPDVPNAQPALEGRTSFPEDTVITYKCEESFVKIPGEKDSVICLKGSQWSDIEEFCNRSCEVPTRLNSASLKQPYITQNYFPVGTVVEYECRPGYRREPSLSPKLTCLQNLKWSTAVEFCKKKSCPNPGEIRNGQIDVPGGILFGATISFSCNTGYKLFGSTSSFCLISGSSVQWSDPLPECREIYCPAPPQIDNGIIQGERDHYGYRQSVTYACNKGFTMIGEHSIYCTVNNDEGEWSGPPPECRGKS
B2: D2D3M3M4 (Multi-4) (other)
chain: CEVPTRLNSASLKQPYITQNYFPVGTVVEYECRPGYRREPSLSPKLTCLQNLKWSTAVEFCKKKSCPNPGEIRNGQIDVPGGILFGATISFSCNTGYKLIGKTSSFCLISGSSVQWSDKLPICEKVLCTPPPKIKNGKHTFSEVEVFEYLDAVTYSCDPAPGPDPFSLIGESTIYCGDNSVWSRAAPECKVVKCRFPVVENGKQISGFGKKFYYKATVMFECDKGFYLDGSDTIVCDSNSTWDPPVPKCLKVL
B3: D2D3M3M4 (DAF-MCP chimera) (other)
chain: B2 chain with I100F, K102S, K119P, I122E, E124R, K125E, V126I, L127Y
B4: Human MCP (M1-M4), membrane cofactor protein (other)
chain: CEEPPTFEAMELIGKPKPYYEIGERVDYKCKKGYFYIPPLATHTICDRNHTWLPVSDDACYRETCPYIRDPLNGQAVPANGTYEFGYQMHFICNEGYYLIGEEILYCELKGSVAIWSGKPPICEKVLCTPPPKIKNGKHTFSEVEVFEYLDAVTYSCDPAPGPDPFSLIGESTIYCGDNSVWSRAAPECKVVKCRFPVVENGKQISGFGKKFYYKATVMFECDKGFYLDGSDTIVCDSNSTWDPPVPKCLKVL
B5: D2M2-4 (DAF-MCP chimera with the DAF D2-D3 linker) (other)
chain: CEVPTRLNSASLKQPYITQNYFPVGTVVEYECRPGYRREPSLSPKLTCLQNLKWSTAVEFCKKKSCPYIRDPLNGQAVPANGTYEFGYQMHFICNEGYYLIGEEILYCELKGSVAIWSGKPPICEKVLCTPPPKIKNGKHTFSEVEVFEYLDAVTYSCDPAPGPDPFSLIGESTIYCGDNSVWSRAAPECKVVKCRFPVVENGKQISGFGKKFYYKATVMFECDKGFYLDGSDTIVCDSNSTWDPPVPKCLKVL
B6: D2M2-4 (E136Q) (D2) (other)
chain: B5 chain with E39Q
B7: D2M2-4 (L161K) (other)
chain: B5 chain with L128K
B8: D2M2-4 (Y101N) (other)
chain: B5 chain with Y68N
B9: D2M2-4 (I134A) (other)
chain: B5 chain with I101A
B10: D2M2-4 (ML) (DAF-MCP chimera with the MCP M1-M2 linker YRET) (other)
chain: B5 chain with K62Y, K63R, K64E, S65T

Key:
Experiment in all cases: cell-based or functional assay
[1] = target: T1, AP C3-convertase (C3bBb) (UniProt P01024 23-667; P01024 749-1663; P00751 260-764)
[2] = target: T2, CP C3-convertase (C4b2a) (UniProt P0C0L4 757-1446; P0C0L4 20-675; P0C0L4 1454-1744; P06681 244-752)
[3] = target: C3b (UniProt P01024 23-667; P01024 749-1663, in the SPR assays biotinylated at the free -SH group with EZ-Link PEO-maleimide-activated biotin)
[4] = target: C4b (UniProt P0C0L4 757-1446; P0C0L4 20-675; P0C0L4 1454-1744, in the SPR assays biotinylated at the free -SH group with EZ-Link PEO-maleimide-activated biotin)
[5] = target: T1, AP C3-convertase (C3bBb); remark: listed apart in the source
[6] = target: T2, CP C3-convertase (C4b2a); remark: listed apart in the source

T1 sequence (P01024 23-667 limits assumed, chain 1 of 3): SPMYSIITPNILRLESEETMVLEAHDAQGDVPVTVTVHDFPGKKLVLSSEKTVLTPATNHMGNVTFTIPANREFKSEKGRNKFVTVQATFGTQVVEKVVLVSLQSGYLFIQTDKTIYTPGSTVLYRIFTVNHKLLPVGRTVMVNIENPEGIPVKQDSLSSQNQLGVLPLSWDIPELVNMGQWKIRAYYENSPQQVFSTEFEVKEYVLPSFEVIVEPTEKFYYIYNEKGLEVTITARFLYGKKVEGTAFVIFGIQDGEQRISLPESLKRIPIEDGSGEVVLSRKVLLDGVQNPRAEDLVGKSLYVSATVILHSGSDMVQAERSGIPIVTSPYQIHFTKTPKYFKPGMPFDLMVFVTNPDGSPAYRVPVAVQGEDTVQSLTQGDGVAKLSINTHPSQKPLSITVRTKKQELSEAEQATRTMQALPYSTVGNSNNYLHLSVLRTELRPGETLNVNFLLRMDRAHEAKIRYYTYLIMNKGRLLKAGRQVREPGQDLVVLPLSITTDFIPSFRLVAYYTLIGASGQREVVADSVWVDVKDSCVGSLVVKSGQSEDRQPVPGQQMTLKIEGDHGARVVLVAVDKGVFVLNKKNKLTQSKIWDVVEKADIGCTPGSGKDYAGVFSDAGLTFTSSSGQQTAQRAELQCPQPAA
T1 sequence (P01024 749-1663 limits assumed, chain 2 of 3): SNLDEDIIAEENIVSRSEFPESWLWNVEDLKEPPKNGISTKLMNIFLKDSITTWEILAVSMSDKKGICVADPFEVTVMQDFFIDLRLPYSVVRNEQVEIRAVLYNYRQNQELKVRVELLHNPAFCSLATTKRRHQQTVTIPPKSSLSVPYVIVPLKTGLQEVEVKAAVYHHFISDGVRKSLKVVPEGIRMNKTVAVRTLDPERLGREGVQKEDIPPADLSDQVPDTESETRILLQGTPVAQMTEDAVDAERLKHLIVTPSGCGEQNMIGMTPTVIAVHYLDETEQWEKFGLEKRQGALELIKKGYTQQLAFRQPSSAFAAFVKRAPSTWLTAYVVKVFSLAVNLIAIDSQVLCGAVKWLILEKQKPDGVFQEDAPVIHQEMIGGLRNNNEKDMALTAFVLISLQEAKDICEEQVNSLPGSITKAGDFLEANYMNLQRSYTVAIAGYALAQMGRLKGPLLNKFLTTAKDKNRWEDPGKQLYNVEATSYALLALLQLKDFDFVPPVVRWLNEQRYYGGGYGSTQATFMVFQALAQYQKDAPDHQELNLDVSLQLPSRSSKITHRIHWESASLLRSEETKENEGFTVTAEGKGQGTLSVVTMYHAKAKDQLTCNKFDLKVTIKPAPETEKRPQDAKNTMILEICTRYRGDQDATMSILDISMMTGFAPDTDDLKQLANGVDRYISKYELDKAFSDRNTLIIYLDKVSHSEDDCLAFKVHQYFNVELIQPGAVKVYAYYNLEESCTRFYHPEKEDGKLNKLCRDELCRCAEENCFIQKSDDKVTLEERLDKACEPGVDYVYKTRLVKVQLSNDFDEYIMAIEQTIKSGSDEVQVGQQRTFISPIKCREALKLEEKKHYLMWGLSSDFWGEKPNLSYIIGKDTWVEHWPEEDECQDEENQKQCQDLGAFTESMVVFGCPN
T1 sequence (P00751 260-764 limits assumed, chain 3 of 3): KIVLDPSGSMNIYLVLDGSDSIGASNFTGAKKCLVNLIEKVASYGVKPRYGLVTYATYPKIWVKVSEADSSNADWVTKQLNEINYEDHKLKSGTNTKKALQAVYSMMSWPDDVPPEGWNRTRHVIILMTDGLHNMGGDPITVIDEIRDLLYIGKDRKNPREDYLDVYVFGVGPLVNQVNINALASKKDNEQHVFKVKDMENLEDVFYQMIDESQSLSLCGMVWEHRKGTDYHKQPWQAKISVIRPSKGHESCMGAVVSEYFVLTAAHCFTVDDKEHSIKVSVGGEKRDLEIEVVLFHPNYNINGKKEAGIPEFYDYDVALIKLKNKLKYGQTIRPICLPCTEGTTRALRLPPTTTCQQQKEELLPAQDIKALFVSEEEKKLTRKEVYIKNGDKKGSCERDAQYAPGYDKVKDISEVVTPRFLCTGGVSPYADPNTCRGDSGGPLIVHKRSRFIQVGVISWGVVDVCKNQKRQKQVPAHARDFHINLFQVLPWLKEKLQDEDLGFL
Sequence of C3b (P01024 23-667 limits assumed, chain 1 of 2): as the sequence (P01024 23-667 limits assumed, chain 1 of 3) above
Sequence of C3b (P01024 749-1663 limits assumed, chain 2 of 2): as the sequence (P01024 749-1663 limits assumed, chain 2 of 3) above
T2 sequence (P0C0L4 757-1446 limits assumed, chain 1 of 4): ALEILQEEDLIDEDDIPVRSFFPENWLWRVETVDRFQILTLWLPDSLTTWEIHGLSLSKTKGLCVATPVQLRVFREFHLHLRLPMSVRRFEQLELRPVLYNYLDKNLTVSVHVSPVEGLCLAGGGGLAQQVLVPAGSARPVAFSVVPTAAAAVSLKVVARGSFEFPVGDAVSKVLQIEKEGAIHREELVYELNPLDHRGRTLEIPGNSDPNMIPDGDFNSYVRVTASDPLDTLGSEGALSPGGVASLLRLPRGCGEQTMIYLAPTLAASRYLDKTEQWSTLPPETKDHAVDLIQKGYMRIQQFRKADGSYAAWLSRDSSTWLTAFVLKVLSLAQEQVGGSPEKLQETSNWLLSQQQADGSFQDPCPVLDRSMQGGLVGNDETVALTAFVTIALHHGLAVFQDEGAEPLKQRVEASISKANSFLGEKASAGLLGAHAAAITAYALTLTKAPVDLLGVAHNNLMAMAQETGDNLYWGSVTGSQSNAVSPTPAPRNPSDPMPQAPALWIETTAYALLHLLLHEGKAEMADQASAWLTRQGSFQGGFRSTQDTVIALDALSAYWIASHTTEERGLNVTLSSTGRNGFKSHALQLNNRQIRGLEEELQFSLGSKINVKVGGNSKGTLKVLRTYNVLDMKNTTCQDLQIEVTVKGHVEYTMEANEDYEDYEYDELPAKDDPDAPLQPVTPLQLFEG
T2 sequence (P0C0L4 20-675 limits assumed, chain 2 of 4): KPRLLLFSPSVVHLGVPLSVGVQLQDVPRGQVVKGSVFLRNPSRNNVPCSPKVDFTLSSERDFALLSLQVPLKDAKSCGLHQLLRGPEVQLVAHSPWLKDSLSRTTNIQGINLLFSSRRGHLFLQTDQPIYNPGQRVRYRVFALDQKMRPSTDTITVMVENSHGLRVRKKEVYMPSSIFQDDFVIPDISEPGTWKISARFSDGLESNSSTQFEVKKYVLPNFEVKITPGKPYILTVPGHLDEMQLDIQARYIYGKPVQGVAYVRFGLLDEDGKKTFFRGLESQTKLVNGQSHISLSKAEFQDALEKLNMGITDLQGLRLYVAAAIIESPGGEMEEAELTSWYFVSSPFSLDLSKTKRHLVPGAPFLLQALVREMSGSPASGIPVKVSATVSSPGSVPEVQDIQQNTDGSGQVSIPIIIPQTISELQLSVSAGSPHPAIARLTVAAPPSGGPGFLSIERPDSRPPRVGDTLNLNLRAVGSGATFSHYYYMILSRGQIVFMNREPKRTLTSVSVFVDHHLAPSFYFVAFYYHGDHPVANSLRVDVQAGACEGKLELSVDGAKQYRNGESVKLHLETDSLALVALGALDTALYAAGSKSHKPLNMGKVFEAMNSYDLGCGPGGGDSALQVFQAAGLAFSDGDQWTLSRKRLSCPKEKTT
T2 sequence (P0C0L4 1454-1744 limits assumed, chain 3 of 4): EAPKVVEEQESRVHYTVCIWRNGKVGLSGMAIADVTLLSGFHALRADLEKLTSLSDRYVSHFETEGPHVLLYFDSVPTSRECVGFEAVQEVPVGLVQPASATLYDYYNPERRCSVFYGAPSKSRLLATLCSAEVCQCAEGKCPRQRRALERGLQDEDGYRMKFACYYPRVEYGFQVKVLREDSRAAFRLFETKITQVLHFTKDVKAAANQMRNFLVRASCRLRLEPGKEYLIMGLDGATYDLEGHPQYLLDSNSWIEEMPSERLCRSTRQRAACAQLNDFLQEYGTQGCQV
T2 sequence (P06681 244-752 limits assumed, chain 4 of 4): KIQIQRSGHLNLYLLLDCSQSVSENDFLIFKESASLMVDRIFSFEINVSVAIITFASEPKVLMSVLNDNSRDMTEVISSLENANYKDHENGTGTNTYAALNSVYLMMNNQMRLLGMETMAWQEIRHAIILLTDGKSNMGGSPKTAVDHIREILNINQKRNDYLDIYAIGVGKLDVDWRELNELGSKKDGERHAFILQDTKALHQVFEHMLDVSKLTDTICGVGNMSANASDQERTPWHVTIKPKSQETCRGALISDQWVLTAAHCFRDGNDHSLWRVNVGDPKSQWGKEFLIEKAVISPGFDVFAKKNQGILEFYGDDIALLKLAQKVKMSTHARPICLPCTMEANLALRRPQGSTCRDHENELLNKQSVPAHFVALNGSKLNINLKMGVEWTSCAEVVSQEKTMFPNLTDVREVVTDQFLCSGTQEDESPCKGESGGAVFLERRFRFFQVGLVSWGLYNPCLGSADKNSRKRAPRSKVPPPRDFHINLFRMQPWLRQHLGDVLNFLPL
Sequence of C4b (P0C0L4 757-1446 limits assumed, chain 1 of 3): as the sequence (P0C0L4 757-1446 limits assumed, chain 1 of 4) above
Sequence of C4b (P0C0L4 20-675 limits assumed, chain 2 of 3): as the sequence (P0C0L4 20-675 limits assumed, chain 2 of 4) above
Sequence of C4b (P0C0L4 1454-1744 limits assumed, chain 3 of 3): as the sequence (P0C0L4 1454-1744 limits assumed, chain 3 of 4) above

Row | Binder | AP-DAA IC50 [1] | Relative CP-DAA [2] | Relative AP-DAA [1] | CP-DAA IC50 [2] | further results
1 | B1 | 0.0031 µM and 0.0023 µM and 0.0011 µM | 1 | – | – | –
2 | B2 | > 0.01 µM | 0.4 | < 0.3 | 39.3 µM | C3b CFA: Time (min.) for 50% cleavage of C3B α′-chain [3]: 17.5 min; Relative C3b CFA [3]: 0.25; C4b CFA: Time (min.) for 50% cleavage of C4B α′-chain [4]: 5.5 min; Relative C4b CFA [4]: 1.7
3 | B3 | 0.0024 µM and 0.0021 µM | – | – | – | –
4 | B4 | – | – | – | – | Relative C3b CFA [3]: 1; Relative C4b CFA [4]: 1
5 | B5 | > 0.019 µM | 0.03 | < 0.1 | 457 µM | –
6 | B6 | – | – | – | – | AP-DAA, fold increase compared to D2M2-4 [5]: 5.6 fold
7 | B7 | – | – | – | – | AP-DAA, fold gain compared to D2M2-4 [5]: 3.4 fold; CP-DAA, fold increase [6]: ~2 fold
8 | B8 | – | – | – | – | AP-DAA, fold increase compared to D2M2-4 [5]: 7.2 fold
9 | B9 | – | – | – | – | AP-DAA, fold gain compared to D2M2-4 [5]: 6.7 fold; CP-DAA, fold increase [6]: ~2 fold
10 | B10 | > 0.01 µM | < 0.01 | < 0.1 | > 1000 µM | –
